The text below walks through data of patent publication US20250129166A1 (Five Prime, published 2025).

By koff is commonly meant the rate constant with which the complex falls apart. As usually defined, the Kd is the free concentration of one partner at which half of the binding sites on the other are occupied at equilibrium, for simple one-to-one binding. Lower therefore signals tighter binding. Broadly, the kon is the rate constant with which the complex forms. Low values mean slower complex formation, high ones faster complex formation.

In experiment [1] the target is T1, monovalent hVISTA-ECD (amino acids 32-193 of SEQ ID NO: 1 with a 7xHis tail) (human, UniProt Q9H7M9 33-193).
T1 construct: also called huVISTA-His; human VISTA-ECD
The experiment in a line: SPR, mAb captured on Protein A, hVISTA-ECD analyte, 37 C, pH 6.7. The method, then:
(§1) Binding kinetics were measured using a Biacore® T100 instrument (GE Healthcare). Protein A (ThermoFisher Scientific catalog #21181) was diluted to 20 μg/ml in 10 mM sodium acetate pH 4.5 and immobilized onto flow cells of a CM5 biosensor following the manufacturer's amine coupling protocol (GE Healthcare), targeting 2,000 RU immobilization density of Protein A per flow cell. The assay was conducted at 37° C. using PBST (137 mM sodium chloride, 2.7 mM potassium chloride, 10 mM phosphate buffer, 0.05% Tween 20) running buffer at pH 7.4, 6.7 and 6.0. Antibodies were diluted to 25 nM in PBST pH 7.4, and were captured across active biosensor flow cells at 5 ul/min for 40 seconds. A concentration series of 100-10 nM monovalent hVISTA-ECD (SEQ ID NO: 325) was prepared in pH 7.4, 6.7 and 6.0 running buffers, and was injected over the captured antibodies at 40 ul/min to measure association and dissociation. Two 15 second injections of 10 mM glycine pH 1.5 were used to regenerate the Protein A capture surface between assay cycles. Rate constants ka (kon) and kd (koff) were derived from reference flow cell and 0 nM blank-subtracted sensorgrams, and were fit to a 1:1 binding model in Biacore® T200 Evaluation Software v.2.0.
(§2) The affinity constant, KD was calculated as the ratio of rate constants koff/kₒₙ for each VISTA antibody. The % Rmax was calculated to compare how pH affects an antibody's binding capacity for VISTA, and represents the measured maximal VISTA binding response relative to the expected maximal VISTA binding response. The % Rmax is defined as the ratio of the reference-subtracted ‘binding’ report point response at the end of the 100 nM VISTA injection for each antibody (Rmax) relative to the expected VISTA binding response (Rexp). Rexp is calculated as Rexp=[(VISTA-ECD molecular weight/mAb molecular weight)×(mAb ‘capture’ report point response (RUs)]×2 binding sites per mAb.
In general terms: In SPR one partner is held on a chip, and binding of the other changes the refractive index at the surface.

In experiment [2] the target is T1, monovalent hVISTA-ECD (amino acids …). The experiment in a line: SPR, mAb captured on Protein A, hVISTA-ECD analyte, 37 C, pH 6.0. The method, then:
as §1, §2

The target is the same in experiment [3]. The experiment in a line: SPR, mAb captured on Protein A, hVISTA-ECD analyte, 37 C, pH 7.4. The method, then:
as §1, §2

Experiment [4] has the same target. Kind of experiment: SPR, mAb captured on Protein A, hVISTA-ECD analyte, 37 C, pH 6.7. On the procedure: as §1, §2
The source holds these as a separate data set.

The target is the same in experiment [5]. The experiment in a line: SPR, mAb captured on Protein A, hVISTA-ECD analyte, 37 C, pH 6.0. On the procedure: as §1, §2
This is another data set of the same source.

Experiment [6] shares this target. Kind of experiment: SPR, mAb on Protein A, 37C, pH 6.0; pH 6.0. The method, then: Binding of several preparations of each of the '029 progeny clones and of the parent '029 antibodies, formatted as IgG1.3 antibodies, to human VISTA at pH 6.0 and 7.4 was measured by Surface plasmon resonance (SPR). SPR analysis was performed to measure koff and KD binding affinity measurements for VISTA Abs at acidic and neutral pHs using a Biacore® T100 instrument (GE Healthcare). Protein A (ThermoFisher Scientific catalog #21181) was diluted to 20 μg/ml in 10 mM sodium acetate pH 4.5 and immobilized onto flow cells of a CM5 biosensor following the manufacturer's amine coupling protocol (GE Healthcare), targeting 2,000 RU immobilization density of Protein A per flow cell. SPR experiments were conducted at 37° C. using PBST (137 mM sodium chloride, 2.7 mM potassium chloride, 10 mM phosphate buffer, 0.05% Tween® 20) running buffer at pH 7.4 and 6.0. Antibodies were diluted to 25 nM in PBST pH 7.4, and were captured across active biosensor flow cells at 5 ul/min for 60 seconds. A concentration series of 50-5 nM monovalent hVISTA-ECD (SEQ ID NO: 325) was prepared in pH 7.4 and 6.0 running buffers, and was injected over the captured antibodies at 40 ul/min to measure association and dissociation. Two 15 second injections of 10 mM glycine pH 1.5 were used to regenerate the Protein A capture surface between assay cycles. Rate constants ka (kₒₙ) and kd (koff) were derived from reference flow cell and 0 nM blank-subtracted sensorgrams, and were fit to a 1:1 binding model in Biacore® T200 Evaluation Software v.2.0. The affinity constant, KD was calculated as the ratio of rate constants koff/kₒₙ for each VISTA antibody.

B1: P1-068761_H100G_E100fF (antibody, human IgG1, kappa, V domains shown)
VH: EVQLVESGGGLVQPGKSLRLSCAASGFTLEDEAMHWVRQAPGKGLEWVSGINWNSEEIGYADSVKGRFTISRDNAKNSLYLQMNSLRTEDTALYYCAKVPGYSGGWIDAFDVWGQGTMVTVSS
VL: not shown
notes: also called P1-070880
Consider B1, for which the koff was 0.0004 s⁻¹ in experiment [1], 0.00021 s⁻¹ in experiment [2] and 0.0023 s⁻¹ in experiment [3].

B2: P1-068767_E100fF (antibody, human IgG1, kappa, V domains shown)
VH: EVQLVESGGGLVQPGKSLRLSCAASGFTLEDYAMHWVRQAPGKGLEWVSGIDWNSENIGYADSVKGRFTISRDNAKNSLYLQMNSLRTEDTALYYCAKVPGYSGGWIDAFDDWGQGTMVTVSS
VL: not shown
notes: also called P1-070910
For B2, the off-rate constant (koff) in experiment [4] stood at 0.026 s⁻¹.

B3: P1-068767_D102V (antibody, human IgG1, kappa, V domains shown)
VH: EVQLVESGGGLVQPGKSLRLSCAASGFTLEDYAMHWVRQAPGKGLEWVSGIDWNSENIGYADSVKGRFTISRDNAKNSLYLQMNSLRTEDTALYYCAKVPGYSGGWIDAEDVWGQGTMVTVSS
VL: not shown
notes: also called P1-070912
For the molecule B3, the figures for the koff in experiment [4], in experiment [3] and in experiment [5] were 0.0028 s⁻¹, 0.0092 s⁻¹ and 0.002 s⁻¹, respectively.

B4: P1-068767_E30D_D102V (antibody, human IgG1, kappa, V domains shown)
VH: EVQLVESGGGLVQPGKSLRLSCAASGFTLDDYAMHWVRQAPGKGLEWVSGIDWNSENIGYADSVKGRFTISRDNAKNSLYLQMNSLRTEDTALYYCAKVPGYSGGWIDAEDVWGQGTMVTVSS
VL: not shown
notes: also called P1-070926
In the case of B4, the koff in experiment [4] is 0.0035 s⁻¹; in experiment [3], 0.011 s⁻¹; in experiment [5], 0.003 s⁻¹.

B5: P1-070906 (P1-068767_D52N) IgG1.3 (antibody, V domains shown)
VH: EVQLVESGGGLVQPGKSLRLSCAASGFTLEDYAMHWVRQAPGKGLEWVSGINWNSENIGYADSVKGRFTISRDNAKNSLYLQMNSLRTEDTALYYCAKVPGYSGGWIDAEDDWGQGTMVTVSS
VL: not shown
notes: IgG1.3
The molecule B5 showed a koff in experiment [4] of 0.0067 s⁻¹. In experiment [6], the Kd was 6.7 nM, the koff was 0.0016 s⁻¹ and the kon was 240000 M⁻¹ s⁻¹. In experiment [5], the koff was 0.0015 s⁻¹.

B6: P1-068767_E30D_E100fF (antibody, human IgG1, kappa, V domains shown)
VH: EVQLVESGGGLVQPGKSLRLSCAASGFTLDDYAMHWVRQAPGKGLEWVSGIDWNSENIGYADSVKGRFTISRDNAKNSLYLQMNSLRTEDTALYYCAKVPGYSGGWIDAFDDWGQGTMVTVSS
VL: not shown
notes: also called P1-070924
As for B6, in experiment [4], the koff came to 0.027 s⁻¹.

B7: P1-068767_D52N_D102V (antibody, human IgG1, kappa, V domains shown)
VH: EVQLVESGGGLVQPGKSLRLSCAASGFTLEDYAMHWVRQAPGKGLEWVSGINWNSENIGYADSVKGRFTISRDNAKNSLYLQMNSLRTEDTALYYCAKVPGYSGGWIDAEDVWGQGTMVTVSS
VL: not shown
notes: also called P1-070930
Turning to B7, the koff in experiment [4] was determined as 0.0018 s⁻¹; in experiment [3], 0.0067 s⁻¹; in experiment [5], 0.0012 s⁻¹.

B8: P1-068767_E55A_E100fF (antibody, human IgG1, kappa, V domains shown)
VH: EVQLVESGGGLVQPGKSLRLSCAASGFTLEDYAMHWVRQAPGKGLEWVSGIDWNSANIGYADSVKGRFTISRDNAKNSLYLQMNSLRTEDTALYYCAKVPGYSGGWIDAFDDWGQGTMVTVSS
VL: not shown
notes: also called P1-070918
The molecule B8 showed a koff in experiment [5] of 0.013 s⁻¹.

B9: P1-070916 (P1-068767_D52N_E55A) IgG1.3 (antibody, V domains shown)
VH: EVQLVESGGGLVQPGKSLRLSCAASGFTLEDYAMHWVRQAPGKGLEWVSGINWNSANIGYADSVKGRFTISRDNAKNSLYLQMNSLRTEDTALYYCAKVPGYSGGWIDAEDDWGQGTMVTVSS
VL: not shown
notes: IgG1.3
In experiment [4], B9 showed an off-rate constant (koff) of 0.0055 s⁻¹. In experiment [6], this molecule gave a Kd of 7.4 nM, a koff of 0.0017 s⁻¹ and a kon of 230000 M⁻¹ s⁻¹. The koff in experiment [5] is 0.0015 s⁻¹.

B10: P1-068767_D52N_E100fF (antibody, human IgG1, kappa, V domains shown)
VH: EVQLVESGGGLVQPGKSLRLSCAASGFTLEDYAMHWVRQAPGKGLEWVSGINWNSENIGYADSVKGRFTISRDNAKNSLYLQMNSLRTEDTALYYCAKVPGYSGGWIDAFDDWGQGTMVTVSS
VL: not shown
notes: also called P1-070928
The molecule B10 gave a koff in experiment [5] of 0.066 s⁻¹.

B11: P1-070908 (P1-068767_E55A) IgG1.3 (antibody, V domains shown)
VH: EVQLVESGGGLVQPGKSLRLSCAASGFTLEDYAMHWVRQAPGKGLEWVSGIDWNSANIGYADSVKGRFTISRDNAKNSLYLQMNSLRTEDTALYYCAKVPGYSGGWIDAEDDWGQGTMVTVSS
VL: not shown
notes: IgG1.3
In turn, B11 returned a koff in experiment [4] of 0.0085 s⁻¹. In addition, in experiment [6], the Kd was determined as 11 nM, the koff is 0.0025 s⁻¹ and the kon was 220000 M⁻¹ s⁻¹. In experiment [5], this molecule had a koff of 0.0023 s⁻¹.

B12: P1-068767_E30D (antibody, human IgG1, kappa, V domains shown)
VH: EVQLVESGGGLVQPGKSLRLSCAASGFTLDDYAMHWVRQAPGKGLEWVSGIDWNSENIGYADSVKGRFTISRDNAKNSLYLQMNSLRTEDTALYYCAKVPGYSGGWIDAEDDWGQGTMVTVSS
VL: not shown
notes: also called P1-070904
As for B12, the koff in experiment [5] stood at 0.0032 s⁻¹.

B13: P1-068767_E30D_D52N (antibody, human IgG1, kappa, V domains shown)
VH: EVQLVESGGGLVQPGKSLRLSCAASGFTLDDYAMHWVRQAPGKGLEWVSGINWNSENIGYADSVKGRFTISRDNAKNSLYLQMNSLRTEDTALYYCAKVPGYSGGWIDAEDDWGQGTMVTVSS
VL: not shown
notes: also called P1-070914
Molecule B13 came in with an off-rate (koff) in experiment [5] of 0.0023 s⁻¹.

B14: P1-068767_E55A_D102V (antibody, human IgG1, kappa, V domains shown)
VH: EVQLVESGGGLVQPGKSLRLSCAASGFTLEDYAMHWVRQAPGKGLEWVSGIDWNSANIGYADSVKGRFTISRDNAKNSLYLQMNSLRTEDTALYYCAKVPGYSGGWIDAEDVWGQGTMVTVSS
VL: not shown
notes: also called P1-070932
With B14, the koff in experiment [4] came to 0.0031 s⁻¹; in experiment [3], 0.01 s⁻¹; in experiment [5] it was 0.002 s⁻¹.

B15: P1-068767_E100fF_D102V (antibody, human IgG1, kappa, V domains shown)
VH: EVQLVESGGGLVQPGKSLRLSCAASGFTLEDYAMHWVRQAPGKGLEWVSGIDWNSENIGYADSVKGRFTISRDNAKNSLYLQMNSLRTEDTALYYCAKVPGYSGGWIDAFDVWGQGTMVTVSS
VL: not shown
notes: also called P1-070920
As for B15, the figures for the koff in experiment [4], in experiment [3] and in experiment [5] were 0.0047 s⁻¹, 0.0083 s⁻¹ and 0.0082 s⁻¹, respectively.

B16: P1-068767_E30D_E55A (antibody, human IgG1, kappa, V domains shown)
VH: EVQLVESGGGLVQPGKSLRLSCAASGFTLDDYAMHWVRQAPGKGLEWVSGIDWNSANIGYADSVKGRFTISRDNAKNSLYLQMNSLRTEDTALYYCAKVPGYSGGWIDAEDDWGQGTMVTVSS
VL: not shown
notes: also called P1-070922
In experiment [5], B16 came in with an off-rate (koff) of 0.0035 s⁻¹.
